T1: His-FliM (E. coli W3110, UniProt P06974 1-334)
T1 sequence (looked up): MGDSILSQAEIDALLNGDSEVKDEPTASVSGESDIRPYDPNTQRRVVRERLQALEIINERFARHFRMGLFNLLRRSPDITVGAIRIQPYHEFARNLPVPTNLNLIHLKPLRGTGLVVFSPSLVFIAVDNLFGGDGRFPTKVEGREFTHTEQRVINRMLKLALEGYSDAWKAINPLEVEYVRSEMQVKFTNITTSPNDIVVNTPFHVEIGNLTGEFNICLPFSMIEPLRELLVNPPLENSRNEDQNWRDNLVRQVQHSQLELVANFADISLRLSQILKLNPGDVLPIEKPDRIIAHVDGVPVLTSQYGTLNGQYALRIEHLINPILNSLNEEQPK


Target: T1, His-FliM
Assay: SPR

Row | Kd [µM] | Binder
1 | 1.63 | CheY-His (natural protein, E. coli W3110) ADKELKFLVVDDFSTMRRIVRNLLKELGFNNVEEAEDGVDALNKLQAGGYGFVISDWNMPNMDGLELLKTIRADGAMSALPVLMVTAEAKKENIIAAAQAGASGYVVKPFTAATLEEKLNKIFEKLGM
2 | 9.4 | AcCheY-His (natural protein, E. coli W3110, acetyl-lysine at 91 and 109 (found by LC-MS/MS)) ADKELKFLVVDDFSTMRRIVRNLLKELGFNNVEEAEDGVDALNKLQAGGYGFVISDWNMPNMDGLELLKTIRADGAMSALPVLMVTAEAKKENIIAAAQAGASGYVVKPFTAATLEEKLNKIFEKLGM
